# Assay: label from the status in PepcDB records
row,Sequence,protein production
1,MDISLLSTTSDPEQLRALAIAMVQKVMAENAELQNRIRILEEQMKLARQQRFGKKCESLAGMQRSLFEEDVDADIAEISAHLDKLLPQTGDEEKTTTRPVRKPLPSPLPRAEKVIPPAEERCPDCDAPLHFIRDEVSEKLEYIPAQVVVNRYIRPQYSCPCCEKVFSGKMPAHILPKSAVEPSVIAQVVISKYTDHLPLYRQQHIFSRMGVELPVSTMADMVGVAGAALAPLAKLLRHELLTRDVIHADETSLRLLDTRKGGKSCSGWLWAYVSGERVSVNGAPY,failed
2,MDKALTNRVIILSFDCLSALDFPILQKLPHFQSLIKKGTVVEKVEPIYPSVTYPSHSTIVTGNYPNKHGVVSNTLLQPGRESPDWHWYRKSIKGTTLYDEAHKANLTTAALLWPVTGRANIDYNLPEIFPNRPWQNQVLVSLFSGSPLYQLDLNRRFGHIRNGLSQPELDDFVLASAVHTIQTKKPNVMFVHFTDLDTQRHYHGFESKETIAAIHRHDERLGQIIQALKDSDLYEESTIIALGDHSALSENKAIQLNVLFHQKGLISVNSKGNLVDWKVYCQSCDGSAYVYVKDKNDTDTIREVQLLLEELLQHKQNGIEFILHDEDAKECGADGNCLFMLEAREGYYFTENYTGDFIKEITEKDVTPSKKYTFGTHGYSPTKPNYETIFIAAGKGIKSGVTIPYMRLIDEGPTIARLLGLHLGETDGSIVEDLLQL,failed
3,MDKASRFDRMVKEKKNDELGLFEKYEETLAEIRKRIIKYKAKTVVDMGCGTGNLCGELSKEIEALGIDKSLEMLEGAKRKYKHIKFKIGSFSDKPFIGKWAGVVVTTYAFHGLNSEEKKEAIKNMIGYLKDDGRIIIGDYMFKNKAEKEECRNKLLSKKRQDLWEVIDGRYYTDLEELKDYVKSLGFKIISEHIVNFTWIVEIYK,failed
4,MDKDLKLRPRIKRLLSPAVMQAELLGGAAWLWVLMLGPSVKINLFTCFLTLSLACICWIQHTTTVFCIWRLLGIAYMLLLATGFFYLMDGDPEINIFALPLTITLAISSALLFVKFLDYLLSAVFVWLLTWLCWQEGVYGEIGIYVWIFCVASVCIGSVLNISYIKTLRAVLSLESKFRELAETDYLTSIPNRRAFMESFDSLIKGGESGYLIMLDIDNFKLINDRHGHEIGDRILCSMAACLRATSGSHCAGRIGGEEFGVLITGGDELTACDYILRLLETVRANFDPPYNYSCSVGMVRFSAASTMSEALSMADKSMYIAKRNGKDCAYFEGQEIVSFLFDDSKLKEKYPTETLSENTYQTDTQ,failed
5,MDKIIIQGARENNLKNIFLEIPKNQFVVFTGLSGSGKSTLAFDTLYAEGQRRYLESLSSYARQFLDKVGKPNVDKIEGLTPAIAIDQKTTSKNPRSTVGTITEIYDYLRLLFARVGEQFCPTCLEPISSMSTSDIISQICHLEENSKIIILAPIIKDKKGSFNDKLESLRLKGYVRAFVDGVMVRLDEEIHLHKTKKHTIEAVVDRVVVNNENASRIASAIEKALKESYGELEVEILQDNAPSIRKHYSEHKACFKCKMSFEELEPLSFSFNSPKGACESCLGLGTKFSLDISKILDPNTPLNQGAIKVIFGYNRSYYAQMFEGFCEYNGIDSALCFNELNKEQQDALLYGNGTEISFHFKNSPLKRPWKGIIQIAYDMFKEQKDLSDYMSEKTCSSCEGHRLKASSLSVQVAGLKMADFLTKPIEEVYHFFNDPTHFSYLNEQEKKIAEPILKEILERVFFLYDVGLGYLTLGRDARTISGGESQRIRIASQIGSGLTGVLYVLDEPSIGLHEKDTLKLINTLRNLQKKGNTLIVVEHDKETIKHADFVVDIGPKAGRHGGEVVFSGSVKELLQNNHSTALYLNGTKKIERPKFELPKEKHFLEIKNVNINNIKNLSVQIPLKQLVCITGVSGSGKSSLILQTLLPTAQTLLNHAKKTQSLNGVEIVGLEHLDKVIYLDQAPIGKTPRSNPATYTGVMDEIRILFAEQKEAKILGYSASRFSFNVKGGRCEKCQGDGDIKIEMHFLPDVLVQCDSCKGAKYNPQTLEIKVKGKSIADVLNMSVEEAYEFFAKFPKIAVKLKTLMDVGLGYITLGQNATTLSGGEAQRIKLAKELSKKDTGKTLYILDEPTTGLHFEDVNHLLQVLHSLVALGNSMLVIEHNLDIIKNADYIIDMGPDGGDKGGKVIASGTPLEVAQNCEKTQSYTGKFLALELK,failed
6,MDKIRTLLLRLPRRQKRVLQVVTDILLVWVALWMAFVVRLGFDDLNNPFIVHFWLFASAPIVAIPLFIRFGMYRAVMRYFGNDALIAIVKAVTLSALTLALVVYVYSNHQTVVPRSIVFNYWWLSMVMIGGLRLAMRQYFLGDWFTTAQHVPFTNRDDGLPKVAIYGAGAAGNQLVAALRLGRLMRPVAFIDDDGSIADRMIAGLQVYKPKHLQQMIDDTGAEEILLAIPSSSRSRRREILGYLEGFPLHVRSVPGFMDLASGRVKVDDIQEVDIADLLGRDAVPAQVDLLAHCIKGQTVLVTGAGGSIGSELCRQILLQGPSTLILLDHSEFNLYSILSELEQRVSRESRLVKLLPILGSVRNYEKLLSVMRTWSVDTVYHAAAYKHVPMVEHNIAEGVLNNVMGTLNTAQAALQCGVANFVLISTDKAVRPTNVMGSTKRLAELTLQALSKELAPVLFDDLSNVSRVNKTRFTMVRFGNVLGSSGSVIPLFHKQIKSGGPLTVTHPKITRYFMTIPEAAQLVIQAGSMGQGGDVFVLDMGEPVRIVELAEKMIHLSGLSVRSEKNPHGDIAIEFTGLRPGEKLYEELLIGDNVAATQHPMIMSANEDHLPWETLKLKLAELLAALELDDYARVRQLLRETVSGYTPDGEIVDWVYQQRRLKP,failed
7,MDKKSKPDWAGESLLSNFVNLLIQTKPIYGVMKQQARQVLIKTAEKNGIPWRKNYEALQVSPAKKLLAAVTNPHVIYPDYYKVPFHAYTEGNLCWDAAFETESATYAMALRVWPQENLTWEAAHARLRGTFHDALETYAPQQVRDILDIGCSVGVSTLALHRYYQRRERYPVRTVGLDLSPYMLAVAKTRDVNSEISEWLHARAENTGLPDKSFDLVTIQFVTHELPGYVSQEIFAEAKRLLRPGGYIALVDNNPRSPVIQNLPPVLFTLMKSTEPWSDDYYTFDIEAALQAVGFAPPITVPSDPRHRTIIARKPD,failed
8,MDKKVEKIQEKVRLFYKKHQRNTTIVVVISLSMILILGMAAWYEGKGISYEAKQTALREKQHALQKKRDDILAGKMTEASTQTTINNFSKQEITGENELVTITGTNGQLNINDANIYVSDNAGIVSNQLKQKMFQLNQQLLENANGAQFMLITVPALPSGESVESYSNKIANQLGVGDREKNNGVVFLMAIEDRESRLEVGYGLESILTDSYADDIINNEEVKEAFRDEDYNTGLNKIIDQVSAAINSKTAQVDNELTNIQTELNTNTTKRNVLLMASIAGMLICAVYILQILRTRKLVKKMYQDYLNCLPTKAVLNNSEQTKKVLNKMKKTSFYCLYLNGATLFATKGKIRRATKRGSLLSIYPNAKKQSFGRLLVGDTLYSYDGSVLTYAYLNSQYNPSNHSSSGSGSGGSFGGGSFGGGGASGSWLEHHHHHH,not failed
9,MDKLEPLRINMRHGSILAVHFFIPGKPTICHQTARTLIRHIPFQCLLRVTSQNLDVGEFVKIYHEEKAEVKSSSLAKKIPKTSNLLASTSDKLELARAITTFKEEEIRHLAEPDDVDFVLTLDVADVGVSKIVIDVGSLIDLLFLSTLGENGK,failed
10,MDKNTRVGKRKKRNKAMRIFWSVMAVILVAIGGFALYEYNTVKNAADTAYRSGGLGNAENGSKNSVISNSKPIAILLMGTDTGALGRTYKGRTDSIMVAVLNPKTKKTTLVSFERDQQVNLPDYPENSPSKLNAAYAYGNAKELAKVLKKYYNIPINAYVLINMGGLKTIVNKVVGVDIAPILSFSYEGYTFTKGKTTHMDGAKALAYSRMRYDDPEGDYGRQKRQRQVLSALLNKAESATTLLNSSFISSLSKQVQTDFTFSDMTSMAKRYLAATKDLKTDYTHGTSYMQDGVSYQKVSVSERQRISNLIRKTLGLKTKTVSTDSIDTSTSSSSSSSSTTTDSDTTGGAGNTAGPSDNGAAAGNGADSGTTGGYSAGNDQNNSTGY,failed
11,MDKPALPIYLVVHFSYGDVTFPLQGRSYWTVGRSQDNDLVIRDNCISRNHAILQATEEDTFLLIDLGSRNGTFVNGRRVSVPIAIQDQDKITFGKTEAQFYSDQNGTPSGLLRNPAEWDTQTNVLHERRLITVLVADMRNFTGMAQQVEEELLSMLIGNWFRQAGHILREAGSWVDKYIGDAVMAIWFHGYNEATPAEIIQILHAVNRLQAMTAKLNQKYELPFPLRIGTGINTGYAMVGNTGSGDHPDYTAIGDTVNAAFRLESATKQAHFDLAMSEKTFSYLQDLPQWSATVQQHTIELKGYTNPITIYGLPFATLGTLLDHTSLEDTTPASEGP,failed
12,MDKRIATIILSIVNIIGIFEFPLYESFIGFFFISSALSILYESQLSLIVPTVLFASLVLLHIITIQLQKLIILSILMLISIIGKNNKWIYSILITLAPGLIINNLYLLLIVLALLIPLLIKLGGEPRAIIISGILYLIYSGIIFPNNEALANQISQISYFYLMFGIIGIIVEDKRITRITLRKILPYLSFIPASFASIMLGYPSDSSFIYWSASSFYFSHLYLPWIYEIGYNSNQHLIASWFLAYLLTLIIKNPLITAEVFLGIFTFLSGLISYYVFKRLNLKYPLLFSLLYQINIFNPIISHSISVFSYAFLPLVLFFAYNKNKVLYSILTLTAASSIPIFISTLVIPLVYRRYYFLLYALGVNAFWLIPFLIFGYDKFTFNVSNIEILISIILVSISVLLYQLRFKNIEILYMIFISFVLLILGINTGPLILLATILTLGSLRDISILYLTLLSGLIILSATSFSYGVISGYANTTFYTYNLPNLPKPGEYGFGITTLVNDLNLTASGMPTESISYNVRYFIYNSRVIENPLYFGFPIPAIPNYTPQLTFSYIYSNSSVKVIYSPFNKPLGLMVYSNVTPSKISIVFPTRIENISGIKGLVKNYTIQIITNTSLTIIGGKVTVDNKSIFSSYYKPKIVTSIMIGEITEVIDSNYSIYLPIHESLTINGKVVNHPIILPPGKYTIVISDEKIEYVSYASIFLTIVSLVLLIRRGMKV,failed
13,MDKRIVGTNAGKVWCALKEIGEISIPELARRLNLSVESTALAAGWLARENKICIQRKNGLIALSDESAFPFSFG,failed
14,MDKRLIVMHNLSRHYGKQYWWQQNSLEDWLMMILIQRTSSKNVAQAVHNLQPYMQVDRLMALSQSELETLVRPAGFYRQKAQRIHDLLTWFVAQGGSFEKIAEKPAAELRETLLALNGIGNETADVMLMYTFGKKTFVADTYAMRLFNRLGFGPYTNYAKMQADFAPALDQITLDEAREWHALIDEHGKTQVRHAYDDRFLLQPDLTEAAWPPEAVQVEPPHDDPGSGKWRHAADPSAMTHK,failed
15,MDKSIIQLVDELPSDNITVKVLNALDYVAPGQWQNLVGFDNTIRAVTGETDARVIQKIRDRATSLYNDPQQGYQSAVKLYQTIDKADTAMATAALANKVGEKIGFLSFLSNITPKADVTQSIDLVSKIAIEIIVFCKLNGIPQPNPQEFANSLANNYQDASLIRMVALVCLDGILPLGPDFLSKIQGIISGAESNSITQNPVFLAVNSSLPGSNPTDKLGFINQGFNAVQGWMNNLVTKTGITPQSISSHLGNFIQIADDNLDFVAAFLDQTTNYFEHTGIQSVARRLILKAHTLVKEEIKQETTQPIQDSSSAVKSDTSQYAVSKKIEVWDEEEEDWYQATIEKVQDDQFFINYIGYGSSHNEWVGKDDIRATDYASSDANGYAVGKKVKCWSDEEETWYTATIEKIQGNQYFIHYTGYDSSYDEWVNSDDIS,failed
16,MDKVFAPWRIEWVEREKTNPDVDCVFCAFQAQDDDRANNLVARSDHAFVLLNNYPYNPGHVMVIPHTHTGEYGDLDDKTLLDHGRLKQRTFDALETALSPDAFNAGLNLGGSAAGGSIDDHLHTHVVPRWNGDTNFMPVISDTKVIVEAVEETYDRLYAAFASQDGTTAPEDGAVRIE,failed
17,MDLALAQVDSTVSGLYDALDLIGVLLNGIIGGTIARQRGYDIIGFLFLALFSALGGGMIRDMLIQQGTVAAIDNQIYLALAFSGALIAMAVNFKGRVWELFKVHGDAIVLGVWAVTGSVKAMNAGVAPLPSIFMGVLTAVGGGMVRDVATGQTPTIFGGGTLYAVPATLSATSMVIFHSFDQVILGMIISPFLGIALAVTAYWCGWVIPVNTDFAPVNLTVSQLRAMLSKAERKDKDQK,failed

# Reference: a protein production outcome set (Wang et al. 2014)
